The text below walks through data of patent US20260116980A1 (BEONE MEDICINES I, published 2026).

For one test, the target named is T1, human ECD-4Ig-B7H3-hFc (human, UniProt Q5ZPR3 29-466).
T1 construct: also called Human B7H3; human B7H3 antigen
T1 sequence: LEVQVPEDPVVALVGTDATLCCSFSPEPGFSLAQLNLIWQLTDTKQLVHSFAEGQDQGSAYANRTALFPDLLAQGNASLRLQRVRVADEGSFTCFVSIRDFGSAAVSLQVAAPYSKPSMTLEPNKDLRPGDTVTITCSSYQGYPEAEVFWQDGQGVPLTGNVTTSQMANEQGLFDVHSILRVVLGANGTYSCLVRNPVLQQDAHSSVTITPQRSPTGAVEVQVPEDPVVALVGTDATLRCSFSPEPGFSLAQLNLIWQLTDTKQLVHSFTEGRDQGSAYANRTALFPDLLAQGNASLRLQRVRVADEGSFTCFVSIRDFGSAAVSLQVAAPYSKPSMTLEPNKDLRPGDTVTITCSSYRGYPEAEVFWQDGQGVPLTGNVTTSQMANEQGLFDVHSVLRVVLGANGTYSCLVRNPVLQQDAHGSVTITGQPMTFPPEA
In words: SPR (BIAcore T-200), antibody captured by anti-mouse IgG Fc, antigen in flow, 1:1 Langmuir model. The text has this:
After immobilization, serial dilutions of the ectodomain of human or cyno B7H3 were passed over the chip. […] Thus, the light gray lines are serial dilutions of human B7H3 protein, and the dark gray lines are fitted curves corresponding to different human B7H3 concentrations. The dotted line is the highest concentration of B7H3 protein. The results were used to calculate the rates of association (Kon) and dissociation (Koff) for BGA-3295.
Briefly, anti-mouse IgG Fc antibody was immobilized on an activated CM5 biosensor chip (Cat. No. BR100530, GE Life Sciences). Purified antibodies were flowed over the chip surface and captured by anti-mouse IgG Fc antibody. Then a serial dilution of human ECD-4Ig-B7H3-hFc was flowed over the chip surface and changes in surface plasmon resonance signals were analyzed to calculate the association rates (kₒₙ) and dissociation rates (koff) by using the one-to-one Langmuir binding model (BIA Evaluation Software, GE Life Sciences). The equilibrium dissociation constant (KD) was calculated as the ratio koff/kₒₙ.
(In general: SPR reads the build-up and loss of mass on a sensor chip optically.)

For test [1], the target named is T2, human 4Ig-B7H3 on overexpressing cells (NK92mi/B7H3) (human, UniProt Q5ZPR3 29-534).
T2 construct: also called Human B7H3; native B7H3
T2 sequence: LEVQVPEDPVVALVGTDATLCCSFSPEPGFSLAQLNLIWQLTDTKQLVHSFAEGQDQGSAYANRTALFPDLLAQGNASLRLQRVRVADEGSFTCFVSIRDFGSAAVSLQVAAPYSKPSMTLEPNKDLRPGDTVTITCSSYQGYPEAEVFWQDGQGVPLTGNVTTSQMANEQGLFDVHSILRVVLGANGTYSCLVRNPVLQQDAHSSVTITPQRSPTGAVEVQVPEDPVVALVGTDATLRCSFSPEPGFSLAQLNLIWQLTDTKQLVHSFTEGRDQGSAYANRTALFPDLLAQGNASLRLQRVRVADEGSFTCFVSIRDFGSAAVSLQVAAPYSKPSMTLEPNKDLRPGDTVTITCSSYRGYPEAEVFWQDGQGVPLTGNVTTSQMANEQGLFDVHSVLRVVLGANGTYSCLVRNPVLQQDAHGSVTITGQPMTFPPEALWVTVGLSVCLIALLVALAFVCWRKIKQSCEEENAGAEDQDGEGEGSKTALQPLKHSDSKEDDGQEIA
Description: FACS on human 4Ig-B7H3 overexpressing cells. Here is the method:
(§1) The binding affinity of anti-B7H3 mAb to human 4Ig-B7H3 and cyno B7H3 overexpressing cell lines were determined by FACS. Briefly, human or cyno B7H3 overexpressing cells were incubated with serially diluted purified antibodies, washed, and incubated with anti-mouse IgG secondary Ab conjugated to APC. After incubation and washing, fluorescence was measured by flow cytometry.

For test [2], the target named is T3, cyno B7H3 on overexpressing cells (cyno, UniProt A0A7N9CYV2 29-534).
T3 sequence: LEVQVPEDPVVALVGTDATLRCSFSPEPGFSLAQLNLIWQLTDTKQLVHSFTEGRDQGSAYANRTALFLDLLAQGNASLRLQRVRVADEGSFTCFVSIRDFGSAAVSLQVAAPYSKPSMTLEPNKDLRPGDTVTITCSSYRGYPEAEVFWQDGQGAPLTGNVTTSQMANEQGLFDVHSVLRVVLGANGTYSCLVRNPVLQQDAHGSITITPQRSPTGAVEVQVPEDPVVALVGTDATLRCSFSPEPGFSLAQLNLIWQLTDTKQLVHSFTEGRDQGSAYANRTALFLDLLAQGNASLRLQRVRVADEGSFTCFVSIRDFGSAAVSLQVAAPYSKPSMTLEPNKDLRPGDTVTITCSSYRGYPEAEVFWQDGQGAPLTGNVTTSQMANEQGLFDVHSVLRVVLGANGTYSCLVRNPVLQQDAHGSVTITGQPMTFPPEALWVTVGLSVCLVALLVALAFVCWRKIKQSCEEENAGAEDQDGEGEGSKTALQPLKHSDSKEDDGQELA
In words: FACS on cyno B7H3 overexpressing cells. The protocol: as §1

Test [3] has as its target T2, human 4Ig-B7H3 on overexpressing cells …. Description: FACS on live NK92mi/B7H3 cells, goat anti-human IgG detection, Test1. The protocol: (§2) Goat anti-human IgG was used as the second antibody to detect antibody binding to the cell surface. EC₅₀ values for dose-dependent binding to human native B7H3 were determined by fitting the dose-response data to the four-parameter logistic model with GraphPad Prism.

The target of test [4] is T4, ECD of human 4Ig-B7H3 (Sinobiological, Cat: 11188-H08H) (human, UniProt Q5ZPR3 29-466).
T4 construct: Bought protein; also called recombinant B7H3
T4 sequence: T1 sequence
In words: SPR, antibody captured on anti-human Fc surface, Test 2. The text has this: (§3) For affinity determination, antibodies were captured by an anti-human Fc surface, and used in the affinity-assay based on surface plasmon resonance (SPR) technology. The results of SPR-determined binding profiles of anti-B7H3 antibodies to the ECD of human 4Ig-B7H3 (Sinobiological, Cat: 11188-H08H) are summarized in Table 5.

In test [5] the target is T4, ECD of human 4Ig-B7H3 (Sinobiological, …). In words: SPR, antibody captured on anti-human Fc surface, Test 1.
Description: as §3

Test [6] concerns the target T2, human 4Ig-B7H3 on overexpressing cells …. In words: FACS on live NK92mi/B7H3 cells, goat anti-human IgG detection, Test2. Here is the method: as §2

Numbering of substitutions follows the chain as printed. Names and notes keep the numbering of the source.

B1: BGA-3726 (purified anti-B7H3 mAb as used in Examples 2-4) (antibody, V domains shown)
VH: QVQLQESGPGLVKPSGTLSLTCAVSGGSISTSNWWNWVRQSPGKGLEWIGEIYPTGNTNYSPSLKSRVTISIDKSKNQFSLKLNSVTAADTAVYYCARGWNWFDPWGQGTLVTVSS
VL: EIVLTQSPGTLSLSPGERATLSCRTSQSINGILLAWYQQKPGQAPRLLIYGASSRATGIPDRFSGSGSGTDFTLSISRLEPEDFAVYYCQQYGSSPRTFGQGTKVEIK
notes: It was captured by anti-mouse IgG Fc in SPR and detected with anti-mouse IgG in FACS; The source mice make human variable and rat constant regions; also called BGA-3276
In the test with human ECD-4Ig-B7H3-hFc, B1 came in with a Kd of 0.0124 nM, a dissociation rate constant (koff) of 4.49e-06 s⁻¹ and a kon of 363000 M⁻¹ s⁻¹. Moreover, in test [1], a half-maximal effect (EC50) was put at 1.91 nM. In test [2], this molecule returned an EC50 of 1.32 nM.

B2: BGA-3726 in human full-length format (human IgG1 variant IgG1mf / kappa) (antibody, V domains shown)
VH: B1 VH
VL: EIVLTQSPGTLSLSPGERATLSCRTSQSINGILLAWYQQKPGQAPRLLIYGASSRATGIPDRFSGSGSGTDFTLSISRLEPEDFAVYYCQQYGSSPRTFGQGTKVEIKR
Turning to B2, in test [3], the EC50 came out at 1.44 nM. In test [4], this molecule displayed a Kd of 0.47 nM, a koff of 0.000207 s⁻¹ and a kon of 442000 M⁻¹ s⁻¹. In addition, in test [5], the Kd came to 0.424 nM, the koff came out at 0.000136 s⁻¹ and the kon was 321000 M⁻¹ s⁻¹.

B3: BGA-4826 (BGA-3726 variant comprising W34Y in HCDR1) (antibody, human IgG1, kappa, V domains shown)
VH: B1 VH with W34Y
VL: B2 VL
For the molecule B3, in test [5], the Kd was found to be 0.596 nM, the koff was 0.000171 s⁻¹ and the kon came out at 288000 M⁻¹ s⁻¹.

B4: BGA-4269 (BGA-3726 variant comprising W98Y in HCDR3) (antibody, human IgG1, kappa, V domains shown)
VH: B1 VH with W102Y
VL: B2 VL
The molecule B4 came in with an on-rate constant (kon) in test [5] of 142000 M⁻¹ s⁻¹.

B5: BGA-4380 (BGA-3726 variant comprising N29Q in LCDR1) (antibody, human IgG1, kappa, V domains shown)
VH: B1 VH
VL: B2 VL with N30Q
B5: in test [5], binding was put at a Kd of 0.635 nM, the koff was determined as 0.000237 s⁻¹ and the kon was 373000 M⁻¹ s⁻¹.

B6: BGA-6938 (W34Y in HCDR1, W96Y in HCDR3 and G30A in LCDR1 based on BGA-3726), human IgG1 variant IgG1mf / kappa format (antibody, V domains shown)
VH: B1 VH with W34Y, W100Y
VL: B2 VL with G31A
In test [6], B6 yielded a 50% effective concentration (EC50) of 1.19 nM. In test [4], the dissociation constant Kd came out at 0.443 nM, the koff came out at 0.000224 s⁻¹ and the kon worked out at 506000 M⁻¹ s⁻¹.

B7: BGA-4265 (BGA-3726 variant comprising G30A in LCDR1) (antibody, human IgG1, kappa, V domains shown)
VH: B1 VH
VL: B2 VL with G31A
On to B7, for which, in test [5], the dissociation constant (Kd) came to 0.308 nM, the koff was 0.000128 s⁻¹ and the kon came out at 414000 M⁻¹ s⁻¹.

B8: BGA-5488 (W34Y in HCDR1, W96Y and W98Y in HCDR3 and G30A in LCDR1 based on BGA-3726) (antibody, human IgG1, kappa, V domains shown)
VH: B1 VH with W34Y, W100Y, W102Y
VL: B2 VL with G31A
For B8, a half-maximal response in test [6] (EC50) required 1.45 nM. In test [4], this molecule registered a Kd of 1.11 nM, a koff of 0.000326 s⁻¹ and a kon of 295000 M⁻¹ s⁻¹.

B9: BGA-4498 (BGA-3726 variant comprising W96Y in HCDR3) (antibody, human IgG1, kappa, V domains shown)
VH: B1 VH with W100Y
VL: B2 VL
Turning to B9, in test [5], the Kd was determined as 0.632 nM, the koff came out at 0.000199 s⁻¹ and the kon was 315000 M⁻¹ s⁻¹.

The Kd is the constant that tells how readily two partners part at equilibrium. Broadly, the koff is a measure of how fast the partners let go of each other. One may read the kon as the rate constant with which the complex forms. In general, EC50 refers to the concentration needed to bring the measured effect to its halfway point. Lower therefore signals greater potency.
